Results reported in patent US20250326818A1 (UNIVERSIT T BASEL, published 2025).
Residue numbers refer to the chain shown, from its start.

Experiments:
Test in all cases: BLI (Octet), biotinylated CD123 ECD captured on streptavidin tips, hIL3 as analyte, level at 250 s normalised to loading
[1] = target: T1, CD123 ECD E51Q (human, UniProt P26951 19-305)
T1 construct: Recombinant ECD
T1 sequence: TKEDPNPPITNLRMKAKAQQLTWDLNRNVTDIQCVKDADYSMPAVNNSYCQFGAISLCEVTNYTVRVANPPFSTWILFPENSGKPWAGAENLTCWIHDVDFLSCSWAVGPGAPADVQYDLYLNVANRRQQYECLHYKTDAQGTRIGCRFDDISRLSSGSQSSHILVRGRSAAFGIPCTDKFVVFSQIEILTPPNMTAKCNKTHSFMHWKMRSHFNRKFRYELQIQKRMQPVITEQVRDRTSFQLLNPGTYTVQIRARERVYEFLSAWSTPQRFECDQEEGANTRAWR
Procedure: (§1) Binding of hIL3 (SinoBiological, PN: 11858-H08H) (analyte) to CD123 ECD wt. and variants (ligands) was performed using Streptavidin capture biosensor (SA) (Sartorius, PN: 18-5019). CD123 ECD wt. and variants were biotinylated using Biotinylation kit Type B (Abeam, PN: ab201796) following manufacturer instructions. Biotinylated CD123 ECD wt. and variants (ligands) were captured on SA tips for 1000 s to achieve a nm shift of 1.5 to 2 nm. Analyte hIL3 was titrated at 7 concentrations from 500 to 7.8 nM. Association to analyte was monitored for 300 s and dissociation for 120 s. Buffer only well was used as reference. No regeneration was performed, and a new set of tips was used for each biotinylated captured ligand. Data were analyzed using the Octet Data Analysis software HT 12.0. Due to the fast on/off nature of the interaction data were analyzed using Steady state analysis. Qualitative representation in FIG. 11 binding level were taken at 250 s association for all concentrations.

[2] = target: T2, CD123 ECD R84E (human, UniProt P26951 19-305)
T2 construct: Recombinant ECD
T2 sequence: T1 sequence with Q33E, R66E
Procedure: as §1

[3] = target: T3, CD123 ECD S59R (human, UniProt P26951 19-305)
T3 construct: Recombinant ECD
T3 sequence: T1 sequence with Q33E, S41R
Procedure: as §1

[4] = target: T4, CD123 ECD S59F (human, UniProt P26951 19-305)
T4 construct: Recombinant ECD
T4 sequence: T1 sequence with Q33E, S41F
Procedure: as §1

[5] = target: T5, CD123 ECD S59P (human, UniProt P26951 19-305)
T5 construct: Recombinant ECD
T5 sequence: T1 sequence with Q33E, S41P
Procedure: as §1

[6] = target: T6, CD123 ECD wt (human, UniProt P26951 19-305)
T6 construct: Recombinant extracellular domain; Biotinylated when captured for the hIL3 assay; also called CD123_WT; recombinant wildtype CD123
T6 sequence: T1 sequence with Q33E
Procedure: as §1

Measured: binding result

B1: hIL3 (ligand, human, UniProt P08700 20-152, looked up)
chain: APMTQTTPLKTSWVNCSNMIDEIITHLKQPPLPLLDFNNLNGEDQDILMENNLRRPNLEAFNRAVKSLQNASAIESILKNLLPCLPLATAAPTRHPIHIKDGDWNEFRRKLTFYLKTLENAQAQQTTLSLAIF
notes: also called Interleukin-3
binds: all assays above
